This is an account of results in patent US20260224762A1, “RADIONUCLIDE LABELLED PEPTIDE CONJUGATE FOR SITE-SPECIFIC UPAR-TARGETING” (CURASIGHT A/S, priority 2023, published 2026).

Series [1] can be described thus: in vivo. Details: species or system female NMRI nude mice. To be noted: female, NMRI nude, mouse, iv, total radioactivity. Here is the method: (§1) The biodistribution of 67Cu-DOTA-AE105 was evaluated in female NMRI nude mice bearing subcutaneous U87 MG tumors. The U87 MG tumor cell line is a human glioblastoma cell line. Animals were stratified into four groups (A, B, C, D) based on tumor volume and body weight on study day-2. Animals in group A were injected with 26.4±0.4 MBq, animals in group B received 55.1±0.2 MBq, animals in group C received 54.3±0.5 MBq and animals in group D received 55.2±0.2 MBq (mean±SEM). The biodistribution was evaluated using SPECT/CT imaging, 2H, 24H, 48H, 96H and 168H after injection. Furthermore, conventional ex vivo biodistribution was evaluated after final imaging timepoints 96H and 168H.
(§2) The results are shown in FIG. 1 as percentage injected dose per gram (% ID/g) and are corrected for radioactive decay. The data in FIG. 1 are derived from the in vivo SPECT/CT imaging.

The test system of series [2] is subcutaneous U87 MG tumors. Put plainly: in vivo. The arrangement: species or system female NMRI nude mice. To be noted: mouse. Here is the method:
as §1, §2

Series [3] can be described thus: in vivo. The conditions noted are these: female, NMRI nude, mouse, 30 kBq, total radioactivity. The arrangement: species or system female NMRI nude mice. Here is the method: (§3) The biodistribution of 225Ac-DOTA-AE105 was evaluated in female NMRI nude mice bearing subcutaneous U87 MG tumors. The U87 MG tumor cell line is a human glioblastoma cell line. Animals were stratified into two groups (A and B) based on tumor volume and body weight on study day-2. Animals in group A were injected with 30 kBq of 225Ac-DOTA-AE105 having a specific activity of 30 kBq/nmol, animals in group B received a thousand-fold dose of DOTA-AE105 (cold construct) immediately before receiving 30 kBq of 225Ac-DOTA-AE105 having a specific activity of 30 kBq/nmol. The biodistribution was evaluated using conventional ex vivo biodistribution 1 hour (1H) after injection. The results are shown in FIG. 10 as percentage injected dose per gram (% ID/g) and are corrected for radioactive decay.

The test system of series [4] is subcutaneous U87 MG tumors. Put plainly: in vivo. Details: species or system female NMRI nude mice. To be noted: mouse. Here is the method: as §3
The source holds these as a separate data set.

Series [5] deals with tumor. The conditions noted are these: in vivo; cited from earlier work.
Details of series [6]: species or system female NMRI nude mice. To be noted: mouse, in vivo, 50 MBq. Here is the method: The tumor binding and retention of 177Lu-DOTA-AE105 was evaluated in female NMRI nude mice bearing subcutaneous U87 MG tumors.
Animals were dosed with approximately 50 MBq 177Lu-DOTA-AE105 at study day 0. Tumor binding and retention of 177Lu-DOTA-AE105 was evaluated by SPECT/CT imaging at 0.5H, 2H and 24H after injection. The results for tumor binding and retention of 177Lu-DOTA-AE105 and the data for 67Cu-DOTA-AE105 from example 2 (table 5b) are summarized in table 6 below.

For series [7], the system named is subcutaneous U87 MG tumors. Nature of the series: Treatment efficacy of 177Lu-DOTA-AE105 in glioblastoma xenograft mice. It is filed as in vivo, female NMRI nude mice. The conditions noted are these: study day 18; group B 92.1 MBq p=0.32; group C three doses of about 30 MBq p=0.84. Here is the method:
Furthermore, the efficacy of 177Lu-DOTA-AE105 was tested in female NMRI nude mice bearing subcutaneous U87 MG tumors.
Animals were stratified into three groups (A, B, and C) based on tumor volume and body weight on study day 0. The mean inclusion volume was […] (range 15.0-339.0 mm^3), while the inclusion weight was 23.6±0.4 g (range […]).
Animals were dosed with either vehicle (group A) or 177Lu-DOTA-AE105 (group B, and C) at different activity levels on study day 0. Animals in group B received 92.1±1.7 MBq, animals in group C received 32.9±0.4 MBq. At study day 4 animals in group C received an additional dosing with 26.7±0.2 MBq and at study day 8 animals in group C were dosed with 30.7±0.2 MBq. Doses are calculated by retracting residual dose from the activity measured before injection. No decay correction has been applied.
Tumor volume and body weight was monitored twice a week after the first dosing. The efficacy was evaluated over a period of 5 weeks after first dosing. Each of the treatment groups were compared to the vehicle control group A.
Differences in tumor volume were evaluated at the latest timepoint where minimum 50% of animals were alive within each of the compared groups.

Series [8] concerns the target uPAR (Homo sapiens, UniProt Q03405). Nature of the series: uPAR binding by Surface Plasmon Resonance (SPR). To be noted: for SPR K(off) / SPR K(on): 18 degrees Celsius, HEPES pH 7.4. Here is the method:
Characterization of the binding properties of lead (Pb) labelled DOTA-AE105 to its target i.e. uPAR was measured by Surface Plasmon Resonance (SPR) and expressed as the binding constant (KD), which is a measure of affinity of the conjugate towards its target.
Characterizing the interaction between a target protein (in this case uPAR) and a ligand by SPR is a well-known method for the skilled person.
The target protein uPAR was captured, via a protein tag, onto a sensor chip and the test compound (Pb2+-DOTA-AE105 and Cu2+-DOTA-AE105 respectively) were dissolved in running buffer (10 mM HEPES buffer at pH 7.4, 150 mM NaCl, […]+0.05% Tween-20) and prepared in 5-point concentration series with three-fold dilution with top concentration around 500 nM of the test compound. The assay was conducted at 18 degrees Celsius.

The structures appear in SMILES notation. Entries after “also recorded” stand apart in the source; their conditions may differ. Where two headings read alike, the source gives them in different places.

uPAR, sequence (Q03405 23-305): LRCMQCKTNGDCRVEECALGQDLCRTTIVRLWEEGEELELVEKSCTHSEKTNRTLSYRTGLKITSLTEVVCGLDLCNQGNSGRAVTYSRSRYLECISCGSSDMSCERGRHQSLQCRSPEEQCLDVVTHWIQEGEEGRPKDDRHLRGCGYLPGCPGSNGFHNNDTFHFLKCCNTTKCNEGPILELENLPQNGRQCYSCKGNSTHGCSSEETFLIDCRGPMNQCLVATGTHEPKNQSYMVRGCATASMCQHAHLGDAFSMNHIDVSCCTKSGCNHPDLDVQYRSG

Take `CC(C)C[C@H](NC(=O)[C@H](Cc1ccc(O)cc1)NC(=O)C(CCCNC(=N)N)NC(=O)C(CO)NC(=O)C(Cc1ccccc1)NC(=O)[C@H](CC1CCCCC1)NC(=O)[C@H](CC(=O)O)NC(=O)CN1CCN(CC(=O)O)CCN(CC(=O)O)CCN(CC(=O)O)CC1)C(=O)N[C@@H](Cc1c[nH]c2ccccc12)C(=O)N[C@@H](CO)C(N)=O` (single isomer, unassigned) [67Cu-DOTA-AE105, metal not drawn]: in series [1] (30 MBq), the tissue uptake at 2 h is 5.31 ± 0.73 %ID/g, the tissue uptake at 24 h came to 5.02 ± 0.08 %ID/g, the tissue uptake at 48 h stood at 3.44 ± 0.11 %ID/g and the tissue uptake at 96 h stood at 1.74 ± 0.22 %ID/g. Also, in series [1] (30 MBq), the tissue uptake at 168 h was 0.88 ± 0.15 %ID/g. Further, in series [1] (60 MBq), the tissue uptake at 2 h worked out at 6.61 ± 1.11 %ID/g, the tissue uptake at 24 h turned out to be 6.47 ± 0.5 %ID/g, the tissue uptake at 48 h came out at 4.24 ± 0.14 %ID/g and the tissue uptake at 96 h was 1.7 ± 0.07 %ID/g. Further, the tissue uptake at 168 h in series [1] (60 MBq) came to 0.64 ± 0.05 %ID/g. Also, in series [2], the “Tumor binding, times higher compared to 177Lu-DOTA-AE105” value was “approximately 50 times”; the “Uptake in other organs such as heart, kidney, and muscle” value is “low uptake”.

As to `CC(C)C[C@H](NC(=O)[C@H](Cc1ccc(O)cc1)NC(=O)C(CCCNC(=N)N)NC(=O)C(CO)NC(=O)C(Cc1ccccc1)NC(=O)[C@H](CC1CCCCC1)NC(=O)[C@H](CC(=O)O)NC(=O)CN1CCN(CC(=O)O)CCN(CC(=O)O)CCN(CC(=O)O)CC1)C(=O)N[C@@H](Cc1c[nH]c2ccccc12)C(=O)N[C@@H](CO)C(N)=O` (single isomer, unassigned) [225Ac-DOTA-AE105, metal not drawn], the tissue uptake at 1 h in series [3] was found to be 3 %ID/g. Also, the “Tumor binding, times higher compared to 177Lu-DOTA-AE105” value in series [4] is “approximately 5 times”.

As for `CC(C)C[C@H](NC(=O)[C@H](Cc1ccc(O)cc1)NC(=O)[C@@H](CCCNC(=N)N)NC(=O)[C@@H](CO)NC(=O)[C@H](Cc1ccccc1)NC(=O)[C@H](CC1CCCCC1)NC(=O)[C@H](CC(=O)O)NC(=O)CN1CCN(CC(=O)O)CCN(CC(=O)O)CCN(CC(=O)O)CC1)C(=O)N[C@@H](Cc1c[nH]c2ccccc12)C(=O)N[C@@H](CO)C(N)=O` [177Lu-DOTA-AE105, metal not drawn], the “Tumor binding and tumor retention compared to the peptide alone” value in series [5] is on record as “vastly decreased”. For the same compound, in series [6], the tissue uptake at 0.5 h stood at 0.749 ± 0.166 %ID/g, the tissue uptake at 2 h was 0.128 ± 0.011 %ID/g and the tissue uptake at 24 h was 0.098 ± 0.001 %ID/g. Further, the “Tumor volume compared to vehicle control group / therapeutic effect” value in series [7] is reported as “no significant difference; also recorded: did not show any therapeutical effect”.

As for `CC(C)C[C@H](NC(=O)[C@H](Cc1ccc(O)cc1)NC(=O)[C@@H](CCCNC(=N)N)NC(=O)[C@@H](CO)NC(=O)[C@H](Cc1ccccc1)NC(=O)[C@H](CC1CCCCC1)NC(=O)[C@@H](CC(=O)O)NC(=O)CN1CCN(CC(=O)O)CCN(CC(=O)O)CCN(CC(=O)O)CC1)C(=O)N[C@@H](Cc1c[nH]c2ccccc12)C(=O)N[C@@H](CO)C(N)=O` [Cu2+-DOTA-AE105], in series [8], the “SPR K(off)” value was 19.95 and the “SPR K(on)” value was 0.110.

In the case of `CC(C)C[C@H](NC(=O)[C@H](Cc1ccc(O)cc1)NC(=O)[C@@H](CCCNC(=N)N)NC(=O)[C@@H](CO)NC(=O)[C@H](Cc1ccccc1)NC(=O)[C@H](CC1CCCCC1)NC(=O)[C@@H](CC(=O)O)NC(=O)CN1CCN(CC(=O)O)CCN(CC(=O)O)CCN(CC(=O)O)CC1)C(=O)N[C@@H](Cc1c[nH]c2ccccc12)C(=O)N[C@@H](CO)C(N)=O` [Pb2+-DOTA-AE105], in series [8], the “SPR K(off)” value came out at 1.78 and the “SPR K(on)” value amounted to 0.102. The “Affinity fold higher than Cu2+-DOTA-AE105” value in series [8] (ratio of KD) was “more than 10 fold”.

In general, tissue uptake refers to the percentage of the injected dose found per gram of tissue.
